{"source": "patent US20170298375", "about": "“CONTROL OF CELLULOSE BIOSYNTHESIS BY OVEREXPRESSION OF A TRANSCRIPTION FACTOR” (Board of Trustees of Michigan State University, published 2017)", "binders": {"B1": {"name": "ProCesA7wt (dsDNA)", "DNA 1": "CAGAAAATTCACCTAATTAAGGACA", "DNA 2": "TGTCCTTAATTAGGTGAATTTTCTG"}, "B2": {"name": "ProCesA8wt (dsDNA)", "DNA 1": "CTTATAGAAAGTTGGTGATTGAAAA", "DNA 2": "TTTTCAATCACCAACTTTCTATAAG"}, "B3": {"name": "ProCesA4wt (dsDNA)", "DNA 1": "TCACTCACAGTTTGGTACAACCTCA", "DNA 2": "TGAGGTTGTACCAAACTGTGAGTGA"}}, "key": {"GST": {"target": "GST (UniProt P08515 P08515:1-218)", "sequence (P08515 whole entry, the tested form may be a part, one chain of several)": "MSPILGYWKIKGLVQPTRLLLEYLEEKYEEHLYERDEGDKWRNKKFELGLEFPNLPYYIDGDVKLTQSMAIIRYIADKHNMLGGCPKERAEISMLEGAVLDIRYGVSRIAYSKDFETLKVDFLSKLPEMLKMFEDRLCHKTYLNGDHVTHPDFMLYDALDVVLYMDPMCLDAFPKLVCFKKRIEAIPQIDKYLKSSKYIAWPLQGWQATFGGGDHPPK", "experiment": "EMSA; GST alone control", "conditions": "tags: GST alone control; label: 32P", "protocol": "(§1) A GST-MYB46 fusion protein was first incubated with the wild type, double-stranded ³²P-labeled oligodeoxynucleotides with the wild type CESA4, CESA7 and CESA8 promoter sequences shown in FIG. 3A. The GST protein was used as control protein. Unlabeled competitor promoter oligonucleotides were then added the assays to generate the assay mixtures identified FIG. 3B, where the competitors were oligonucleotides with wild type and mutated CESA4, CESA7 and CESA8 promoter sequences shown in FIG. 3A. […] To generate the results shown FIG. 3B, each assay mixture was then subjected to an electrophoretic mobility shift assay (EMSA) by polyacrylamide gel electrophoresis (PAGE). […] The promoter regions used for the DNA probes in each experiment are indicated below the gel images. Competition for the protein-DNA binding was performed using 60× unlabeled probes. The free unbound DNA probes are indicated by the arrow.\n(§2) DNA fragments for EMSA were obtained by PCR-amplification and labeled with [γ-³²P]ATP using T4 polynucleotide kinase (NEB). The end-labeled probes were purified with Microspin S-200 HR column (GE Healthcare). The labeled DNA fragments were incubated for 25 min with 50 ng of GST-MYB46 in a binding buffer [10 mM. Tris (pH 7.5), 50 mM KCl, 1 mM DTT, 2.5% glycerol, 5 mM MgCl₂, 100 μg/ml BSA, and 50 ng/μL poly(dI-dC)]."}, "GST-MYB46 [1]": {"target": "T1, GST-MYB46 (Arabidopsis thaliana, UniProt Q9LXV2 SEQ:1-280)", "T1 sequence (Q9LXV2 whole entry, the tested form may be a part)": "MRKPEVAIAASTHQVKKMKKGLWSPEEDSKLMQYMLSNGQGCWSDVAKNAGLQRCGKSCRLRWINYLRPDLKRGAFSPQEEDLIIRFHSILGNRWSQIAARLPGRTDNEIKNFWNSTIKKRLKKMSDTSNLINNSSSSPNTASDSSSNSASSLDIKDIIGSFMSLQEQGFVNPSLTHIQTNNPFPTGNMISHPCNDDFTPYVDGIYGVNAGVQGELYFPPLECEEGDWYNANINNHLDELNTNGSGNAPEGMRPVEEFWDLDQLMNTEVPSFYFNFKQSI", "experiment": "EMSA; labelled fragment stated as -662 to -486 in text", "conditions": "tags: GST fusion, E. coli Rosetta gami; label: 32P", "protocol": "as §1, §2"}, "GST-MYB46 [2]": {"target": "T1, GST-MYB46", "experiment": "EMSA; labelled fragment stated as -525 to -358 in text", "conditions": "tags: GST fusion, E. coli Rosetta gami; label: 32P", "protocol": "as §1, §2"}, "GST-MYB46 [3]": {"target": "T1, GST-MYB46", "experiment": "EMSA; labelled fragment stated as -248 to -69 in text; 5 mM MgCl2, 50 mM KCl, pH 7.5", "conditions": "tags: GST fusion, E. coli Rosetta gami; label: 32P", "protocol": "as §1, §2"}}}
{"binder": "B1", "values": [{"measurement": "binding result", "setting": "GST", "result": "no binding"}, {"measurement": "binding result", "setting": "GST-MYB46 [1]", "result": "binds"}]}
{"binder": "B2", "values": [{"measurement": "binding result", "setting": "GST", "result": "no binding"}, {"measurement": "binding result", "setting": "GST-MYB46 [2]", "result": "binds"}]}
{"binder": "B3", "values": [{"measurement": "binding result", "setting": "GST", "result": "no binding"}, {"measurement": "binding result", "setting": "GST-MYB46 [3]", "result": "binds"}]}
